Measured values: the supplement of paper PMC9233669
Variants at the floor of the assay were thinned out.

Key:
[1] = tested on: biotinyl-Phe-oxazolone; test: self-aminoacylation, catalytic enhancement (BFO) (fold over background); higher = more active; k-Seq, kA / k0A0; sequences stand for … in GGGAAUGGAUCCACAUCUACGAAUUC…UUCACUGCAGACUUGACGAAGCUG
How it was run: (§1)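 The uncatalyzed rate is the low-activity peak of a bimodal Gaussian fit, and catalytic enhancement is median kA divided by it. The kA values came from pseudo-first-order fits, with 1000 bootstraps, of per-sequence fraction reacted measured by streptavidin capture, triplicate qPCR and Illumina sequencing. Mutagenized RNA pools with a 21-nt variable region (0.43 μM) were reacted with each biotinyl-aminoacyl-oxazolone at 2–1250 μM in 50 μL HEPES/NaCl/KCl/MgCl2/CaCl2 buffer with 5% acetonitrile, pH 6.9–7.0, for 90 minutes at room temperature.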

[2] = tested on: biotinyl-Ile-oxazolone; test: self-aminoacylation, catalytic enhancement (BIO) (fold over background); higher = more active; k-Seq, kA / k0A0; sequences stand for … in GGGAAUGGAUCCACAUCUACGAAUUC…UUCACUGCAGACUUGACGAAGCUG
How it was run: as §1

[3] = tested on: biotinyl-Met-oxazolone; test: self-aminoacylation, catalytic enhancement (BMO) (fold over background); higher = more active; k-Seq, kA / k0A0; sequences stand for … in GGGAAUGGAUCCACAUCUACGAAUUC…UUCACUGCAGACUUGACGAAGCUG
How it was run: as §1

[4] = tested on: biotinyl-Val-oxazolone; test: self-aminoacylation, catalytic enhancement (BVO) (fold over background); higher = more active; k-Seq, kA / k0A0; sequences stand for … in GGGAAUGGAUCCACAUCUACGAAUUC…UUCACUGCAGACUUGACGAAGCUG
How it was run: as §1

[5] = tested on: biotinyl-Leu-oxazolone; test: self-aminoacylation, catalytic enhancement (BLO) (fold over background); higher = more active; k-Seq, kA / k0A0; sequences stand for … in GGGAAUGGAUCCACAUCUACGAAUUC…UUCACUGCAGACUUGACGAAGCUG
How it was run: as §1

[6] = tested on: biotinyl-Trp-oxazolone; test: self-aminoacylation, catalytic enhancement (BWO) (fold over background); higher = more active; k-Seq, kA / k0A0; sequences stand for … in GGGAAUGGAUCCACAUCUACGAAUUC…UUCACUGCAGACUUGACGAAGCUG
How it was run: as §1

Sequence | self-aminoacylation [1] | self-aminoacylation [2] | self-aminoacylation [3] | self-aminoacylation [4] | self-aminoacylation [5] | self-aminoacylation [6]
AUUACCCUGGUCUUUGAGUGA [Fam2.1 aminoacylation ribozyme variant] | 41.8 | 4.05 | 7.29 | 4.17 | 8.33 | 9.67
AUUACCCUGGUGACCGAGUGA [Fam2.1 aminoacylation ribozyme variant] | 66.1 | 4.29 | 9.44 | 4.93 | 11.1 | 12.5
AUUACCCUGGUGAUCGAGCGA [Fam2.1 aminoacylation ribozyme variant] | 5 | 2.06 | 1.76 | 1.95 | 1.93 | 1.82
AUUACCCUGGUGAUCGAGUAA [Fam2.1 aminoacylation ribozyme variant] | 0.541 | 1.24 | 1.54 | 1.23 | 1.21 | 2.15
AUUACCCUGGUGAUCGGGUGA [Fam2.1 aminoacylation ribozyme variant] | 39.5 | 3.43 | 5.18 | 4.27 | 7.07 | 6.86
AUUACCCUGGUGAUCUAGUGA [Fam2.1 aminoacylation ribozyme variant] | 45.1 | 3.11 | 7.61 | 3.29 | 6.59 | 8.61
AUUACCCUGGUUAUCCAGUGA [Fam2.1 aminoacylation ribozyme variant] | 74.4 | 5.5 | 11.5 | 5.13 | 11.6 | 14.2
AUUACCCUGGUUAUCGAAUGA [Fam2.1 aminoacylation ribozyme variant] | 0.877 | 0.965 | 0.971 | 0.846 | 0.866 | 0.677
AUUACCCUGGUUAUGGAGUGA [Fam2.1 aminoacylation ribozyme variant] | 47.4 | 3.95 | 7.77 | 3.93 | 7.9 | 8.01
AUUACCCUGGUUUUCGAGUGA [Fam2.1 aminoacylation ribozyme variant] | 45.7 | 3.74 | 8.29 | 4.43 | 9.42 | 10.9
AUUACCCUGUUCAACGAGUGA [Fam2.1 aminoacylation ribozyme variant] | 57 | 5.25 | 11.2 | 5.18 | 11.8 | 13.4
AUUACCCUGUUCAUCGAAUGA [Fam2.1 aminoacylation ribozyme variant] | 1.18 | 0.982 | 1.16 | 1.13 | 0.871 | 0.767
AUUACCCUGUUCAUCGAGCGA [Fam2.1 aminoacylation ribozyme variant] | 1.13 | 1.2 | 1.35 | 1.33 | 1.36 | 1.08
AUUACCCUGUUCAUCGAGUGG [Fam2.1 aminoacylation ribozyme variant] | 0.962 | 1.08 | 1.03 | 1.29 | 1.25 | 1.48
AUUACCCUGUUCAUCUAGUGA [Fam2.1 aminoacylation ribozyme variant] | 86.2 | 6.08 | 16.4 | 7.03 | 14.8 | 17.3
AUUACCCUGUUCCUCGAGUGA [Fam2.1 aminoacylation ribozyme variant] | 11.2 | 2.27 | 3.86 | 2.68 | 3.54 | 4.81
AUUACCCUGUUUAUCGAGUGA [Fam2.1 aminoacylation ribozyme variant] | 62.5 | 5.5 | 12.6 | 6.02 | 12.3 | 15.7
AUUACCCUUGUAAUCGAGUGA [Fam2.1 aminoacylation ribozyme variant] | 127 | 6.93 | 16.4 | 6.66 | 16.3 | 21.1
AUUACCCUUGUCAGCGAGUGA [Fam2.1 aminoacylation ribozyme variant] | 28.6 | 2.94 | 5.08 | 3.3 | 6.14 | 6.54
AUUACCCUUGUCAUCGAGGGA [Fam2.1 aminoacylation ribozyme variant] | 2.14 | 1.16 | 1.28 | 0.957 | 1.27 | 1.3
AUUACCCUUGUCAUCGAGUGA [Fam2.1 aminoacylation ribozyme variant] | 21.8 | 3.19 | 5.94 | 3.54 | 5.88 | 7.65
AUUACCCUUGUCAUCGGGUGA [Fam2.1 aminoacylation ribozyme variant] | 45.3 | 4.14 | 8.35 | 4.39 | 9.03 | 9.41
AUUACCCUUGUCAUGGAGUGA [Fam2.1 aminoacylation ribozyme variant] | 22.1 | 2.87 | 4.62 | 2.76 | 5.03 | 5.67
AUUACCCUUGUCCUCGAGUGA [Fam2.1 aminoacylation ribozyme variant] | 32.2 | 2.68 | 4.9 | 3.08 | 4.77 | 5.17
AUUACCCUUGUCGUCGAGUGA [Fam2.1 aminoacylation ribozyme variant] | 2.62 | 1.13 | 1.06 | 1.11 | 1.05 | 0.966
AUUACCCUUGUCUUCGAGUGA [Fam2.1 aminoacylation ribozyme variant] | 18.9 | 2.64 | 4.46 | 2.73 | 4.49 | 6.14

Sequence | self-aminoacylation [1] | self-aminoacylation [2] | self-aminoacylation [3] | self-aminoacylation [4] | self-aminoacylation [5] | self-aminoacylation [6]
AUUACCCUUGUGAUCGAGUGA [Fam2.1 aminoacylation ribozyme variant] | 50.1 | 3.2 | 7.15 | 3.53 | 7.77 | 9.16
AUUACCCUUUUCAUCGAGUGA [Fam2.1 aminoacylation ribozyme variant] | 25.2 | 2.88 | 6.39 | 3.68 | 6.32 | 7.27
AUUACCGUGGUCAGCGAGUGA [Fam2.1 aminoacylation ribozyme variant] | 19.3 | 3.02 | 4.54 | 3.1 | 4.64 | 6.24
AUUACCGUGGUCGUCGAGUGA [Fam2.1 aminoacylation ribozyme variant] | 2.81 | 1.2 | 1.09 | 1.06 | 1.18 | 0.591
AUUACCGUGUUCAUCGAGUGA [Fam2.1 aminoacylation ribozyme variant] | 20.2 | 3.72 | 6.78 | 3.92 | 6.23 | 8.08
AUUACCUAGGUCAUCGAGUGA [Fam2.1 aminoacylation ribozyme variant] | 6.96 | 4.2 | 6.35 | 4.01 | 7.92 | 7.91
AUUACCUCGGUCAUCGAGUGA [Fam2.1 aminoacylation ribozyme variant] | 20.8 | 2.82 | 5.12 | 2.87 | 5.32 | 6.06
AUUACCUGGGUCAUCGAGUGA [Fam2.1 aminoacylation ribozyme variant] | 5.6 | 2.83 | 5.07 | 3.05 | 4.74 | 5.91
AUUACCUUGGCCAUCGAGUGA [Fam2.1 aminoacylation ribozyme variant] | 2.01 | 1.95 | 2.38 | 1.62 | 2.5 | 3.26
AUUACCUUGGUCAUCCAGUGA [Fam2.1 aminoacylation ribozyme variant] | 22.5 | 3.16 | 4.51 | 2.84 | 4.83 | 5.48
AUUACCUUGGUCAUCGAAUGA [Fam2.1 aminoacylation ribozyme variant] | 0.902 | 1.14 | 0.77 | 0.945 | 1.1 | 0.837
AUUACCUUGGUCAUCGAGCGA [Fam2.1 aminoacylation ribozyme variant] | 1.02 | 1.55 | 1.5 | 1.83 | 1.74 | 1.57
AUUACCUUGGUCAUCUAGUGA [Fam2.1 aminoacylation ribozyme variant] | 47.8 | 4.49 | 9.34 | 4.72 | 8.77 | 11.2
AUUACCUUGGUCAUGGAGUGA [Fam2.1 aminoacylation ribozyme variant] | 4.26 | 2.97 | 4.16 | 2.72 | 4.42 | 5.57
AUUACCUUUGUCAUCGAGUGA [Fam2.1 aminoacylation ribozyme variant] | 20 | 3.25 | 5.22 | 3.06 | 6.05 | 6.87
AUUACGCCGGUCAUCGAGUGA [Fam2.1 aminoacylation ribozyme variant] | 81.9 | 3.94 | 7.36 | 4.89 | 7.93 | 8.28
AUUACGCUGGGCAUCGAGUGA [Fam2.1 aminoacylation ribozyme variant] | 43.1 | 3.69 | 7.19 | 4 | 7.76 | 6.96
AUUACGCUGGUCACCGAGUGA [Fam2.1 aminoacylation ribozyme variant] | 47.5 | 3.71 | 6.73 | 4.31 | 7.46 | 7.92
AUUACGCUGGUCAUCGAGUGU [Fam2.1 aminoacylation ribozyme variant] | 2.57 | 2.34 | 2.96 | 2.64 | 2.9 | 3.22
AUUACGCUGGUCAUCGCGUGA [Fam2.1 aminoacylation ribozyme variant] | 134 | 7.32 | 12.2 | 9.87 | 11.7 | 15.4
AUUACGCUGGUCAUCUAGUGA [Fam2.1 aminoacylation ribozyme variant] | 27.3 | 3.21 | 4.83 | 2.89 | 5.42 | 6.02
AUUACUCAGGUCAUCGAGUGA [Fam2.1 aminoacylation ribozyme variant] | 13.2 | 2.41 | 3.58 | 2.57 | 3.72 | 4.11
AUUACUCUGAUCAUCGAGUGA [Fam2.1 aminoacylation ribozyme variant] | 19.3 | 2.93 | 5.85 | 2.95 | 5.35 | 6.7
AUUACUCUGGGCAUCGAGUGA [Fam2.1 aminoacylation ribozyme variant] | 41.2 | 3.71 | 6.39 | 3.11 | 6.57 | 7.68
AUUACUCUGGUAAUCGAGUGA [Fam2.1 aminoacylation ribozyme variant] | 45.5 | 3.66 | 7.65 | 3.46 | 8.85 | 9.06
